What all share (experiment): BLI
Experiment [1] deals with T1, Human EphB2-His (human, UniProt P29323 19-543).
T1 sequence (looked up): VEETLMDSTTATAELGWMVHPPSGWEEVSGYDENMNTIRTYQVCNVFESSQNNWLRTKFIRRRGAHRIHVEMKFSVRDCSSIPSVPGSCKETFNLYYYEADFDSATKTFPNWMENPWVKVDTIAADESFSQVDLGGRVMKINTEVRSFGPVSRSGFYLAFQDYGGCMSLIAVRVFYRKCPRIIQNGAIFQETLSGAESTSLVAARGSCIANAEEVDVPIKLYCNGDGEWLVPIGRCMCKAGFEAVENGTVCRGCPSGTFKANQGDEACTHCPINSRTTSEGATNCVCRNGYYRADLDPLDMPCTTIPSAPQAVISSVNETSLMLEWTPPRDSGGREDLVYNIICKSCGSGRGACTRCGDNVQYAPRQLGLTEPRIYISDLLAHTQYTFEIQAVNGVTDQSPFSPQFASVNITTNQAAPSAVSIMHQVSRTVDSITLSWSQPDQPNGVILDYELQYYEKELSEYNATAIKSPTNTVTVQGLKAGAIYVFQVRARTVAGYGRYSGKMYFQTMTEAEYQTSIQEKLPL

The target of experiment [2] is T2, Human EphB1-His (human, UniProt P54762 18-540).
T2 sequence (looked up): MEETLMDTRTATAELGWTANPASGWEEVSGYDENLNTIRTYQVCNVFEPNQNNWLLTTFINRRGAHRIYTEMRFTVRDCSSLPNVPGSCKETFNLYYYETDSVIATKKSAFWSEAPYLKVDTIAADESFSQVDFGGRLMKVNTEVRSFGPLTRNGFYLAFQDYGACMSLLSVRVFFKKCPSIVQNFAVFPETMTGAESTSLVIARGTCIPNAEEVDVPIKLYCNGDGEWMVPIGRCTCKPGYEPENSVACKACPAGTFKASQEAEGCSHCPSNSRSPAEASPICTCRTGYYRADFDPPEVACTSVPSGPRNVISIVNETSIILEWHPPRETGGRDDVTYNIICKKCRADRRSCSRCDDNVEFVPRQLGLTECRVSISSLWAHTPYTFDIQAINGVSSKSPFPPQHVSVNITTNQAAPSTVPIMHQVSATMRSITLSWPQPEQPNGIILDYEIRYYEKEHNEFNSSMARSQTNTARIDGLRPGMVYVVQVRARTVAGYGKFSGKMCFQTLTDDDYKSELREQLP

The target in experiment [3] is T3, Human EphB4-His (human, UniProt P54760 16-539).
T3 sequence (looked up): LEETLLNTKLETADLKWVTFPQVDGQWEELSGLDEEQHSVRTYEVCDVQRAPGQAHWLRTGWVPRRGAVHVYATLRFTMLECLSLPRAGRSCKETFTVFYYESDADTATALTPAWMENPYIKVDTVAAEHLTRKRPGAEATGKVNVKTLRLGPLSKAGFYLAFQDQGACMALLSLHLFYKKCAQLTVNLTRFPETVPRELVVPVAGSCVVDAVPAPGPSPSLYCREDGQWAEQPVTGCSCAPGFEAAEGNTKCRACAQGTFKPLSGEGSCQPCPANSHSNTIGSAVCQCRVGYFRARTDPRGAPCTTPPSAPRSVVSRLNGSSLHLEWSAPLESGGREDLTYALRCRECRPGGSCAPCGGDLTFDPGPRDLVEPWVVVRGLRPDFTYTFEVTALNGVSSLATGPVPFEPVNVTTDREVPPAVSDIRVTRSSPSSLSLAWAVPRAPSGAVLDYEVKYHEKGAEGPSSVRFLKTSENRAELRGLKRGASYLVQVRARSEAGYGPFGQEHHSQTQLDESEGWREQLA

Experiment [4] concerns the target T4, Rat EphB1-Fc protein (rat, UniProt P09759 18-538).
T4 sequence (looked up): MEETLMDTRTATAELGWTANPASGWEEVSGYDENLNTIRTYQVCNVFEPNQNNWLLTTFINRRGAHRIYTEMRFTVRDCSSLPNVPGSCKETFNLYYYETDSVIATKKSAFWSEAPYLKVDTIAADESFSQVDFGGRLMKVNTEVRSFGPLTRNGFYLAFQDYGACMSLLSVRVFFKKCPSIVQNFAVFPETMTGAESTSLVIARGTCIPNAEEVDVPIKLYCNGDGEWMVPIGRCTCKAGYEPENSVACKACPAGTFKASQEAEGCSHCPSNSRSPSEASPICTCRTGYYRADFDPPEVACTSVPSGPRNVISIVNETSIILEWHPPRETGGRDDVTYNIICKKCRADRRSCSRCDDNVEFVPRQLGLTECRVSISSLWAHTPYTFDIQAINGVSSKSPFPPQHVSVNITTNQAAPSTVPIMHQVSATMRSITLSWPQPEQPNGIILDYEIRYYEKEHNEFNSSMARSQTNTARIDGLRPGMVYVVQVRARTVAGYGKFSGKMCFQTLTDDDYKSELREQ

The target in experiment [5] is T5, Human EphB3-Fc (human, UniProt P54753 38-550).
T5 sequence (looked up): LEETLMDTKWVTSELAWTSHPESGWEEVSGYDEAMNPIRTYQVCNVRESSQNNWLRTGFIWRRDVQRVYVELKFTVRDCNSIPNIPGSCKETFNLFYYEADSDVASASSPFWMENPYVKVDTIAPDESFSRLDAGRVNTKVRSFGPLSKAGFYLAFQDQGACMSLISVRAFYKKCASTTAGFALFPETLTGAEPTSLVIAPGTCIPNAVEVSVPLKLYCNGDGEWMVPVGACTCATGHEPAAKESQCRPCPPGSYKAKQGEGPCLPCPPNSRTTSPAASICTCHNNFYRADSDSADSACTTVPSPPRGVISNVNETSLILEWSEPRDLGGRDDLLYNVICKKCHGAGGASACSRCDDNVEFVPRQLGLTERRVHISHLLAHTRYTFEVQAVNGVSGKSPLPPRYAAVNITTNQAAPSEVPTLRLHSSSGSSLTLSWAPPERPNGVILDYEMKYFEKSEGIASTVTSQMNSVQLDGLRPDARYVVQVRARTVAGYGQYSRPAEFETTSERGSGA

These results are taken from doi:10.64898/2025.12.08.693004 (bioRxiv, 2025).

B1: Human EphrinB2-Fc (Fc fusion, UniProt P52799 28-229, looked up)
chain: IVLEPIYWNSSNSKFLPGQGLVLYPQIGDKLDIICPKVDSKTVGQYEYYKVYMVDKDQADRCTIKKENTPLLNCAKPDQDIKFTIKFQEFSPNLWGLEFQKNKDYYIISTSNGSLEGLDNQEGGVCQTRAMKILMKVGQDASSAGSTRNKDPTRRPELEAGTNGRSSTTSPFVKPNPGSSTDGNSAGHSGNNILGSEVALFA
As to B1, the binding result in experiment [1], in experiment [2] and in experiment [3] was “binds” in each case.

B2: Mouse EphrinB2-His protein (ligand, UniProt P52800 29-232, looked up)
chain: RSIVLEPIYWNSSNSKFLPGQGLVLYPQIGDKLDIICPKVDSKTVGQYEYYKVYMVDKDQADRCTIKKENTPLLNCARPDQDVKFTIKFQEFSPNLWGLEFQKNKDYYIISTSNGSLEGLDNQEGGVCQTRAMKILMKVGQDASSAGSARNHGPTRRPELEAGTNGRSSTTSPFVKPNPGSSTDGNSAGHSGNNLLGSEVALFA
In the case of B2, the binding result in experiment [4] and in experiment [5] was “binds” each time.
